Assay results reported in US7888089B2, “eNOS mutations useful for gene therapy and therapeutic screening” (Yale University, priority 1999, dated 2011).
Changes are numbered by the printed parent chain. In names and notes the source's numbering stands.

B1: Wild type: Wild type bovine endothelial nitric oxide synthase (eNOS) (protein, UniProt P29473 2-1205, looked up)
Nitric oxide synthase 3: GNLKSVGQEPGPPCGLGLGLGLGLCGKQGPASPAPEPSRAPAPATPHAPDHSPAPNSPTLTRPPEGPKFPRVKNWELGSITYDTLCAQSQQDGPCTPRCCLGSLVLPRKLQTRPSPGPPPAEQLLSQARDFINQYYSSIKRSGSQAHEERLQEVEAEVASTGTYHLRESELVFGAKQAWRNAPRCVGRIQWGKLQVFDARDCSSAQEMFTYICNHIKYATNRGNLRSAITVFPQRAPGRGDFRIWNSQLVRYAGYRQQDGSVRGDPANVEITELCIQHGWTPGNGRFDVLPLLLQAPDEAPELFVLPPELVLEVPLEHPTLEWFAALGLRWYALPAVSNMLLEIGGLEFSAAPFSGWYMSTEIGTRNLCDPHRYNILEDVAVCMDLDTRTTSSLWKDKAAVEINLAVLHSFQLAKVTIVDHHAATVSFMKHLDNEQKARGGCPADWAWIVPPISGSLTPVFHQEMVNYILSPAFRYQPDPWKGSATKGAGITRKKTFKEVANAVKISASLMGTLMAKRVKATILYASETGRAQSYAQQLGRLFRKAFDPRVLCMDEYDVVSLEHEALVLVVTSTFGNGDPPENGESFAAALMEMSGPYNSSPRPEQHKSYKIRFNSVSCSDPLVSSWRRKRKESSNTDSAGALGTLRFCVFGLGSRAYPHFCAFARAVDTRLEELGGERLLQLGQGDELCGQEEAFRGWAKAAFQASCETFCVGEEAKAAAQDIFSPKRSWKRQRYRLSTQAEGLQLLPGLIHVHRRKMFQATVLSVENLQSSKSTRATILVRLDTAGQEGLQYQPGDHIGICPPNRPGLVEALLSRVEDPPPPTESVAVEQLEKGSPGGPPPSWVRDPRLPPCTLRQALTFFLDITSPPSPRLLRLLSTLAEEPSEQQELETLSQDPRRYEEWKWFRCPTLLEVLEQFPSVALPAPLLLTQLPLLQPRYYSVSSAPNAHPGEVHLTVAVLAYRTQDGLGPLHYGVCSTWLSQLKTGDPVPCFIRGAPSFRLPPDPYVPCILVGPGTGIAPFRGFWQERLHDIESKGLQPAPMTLVFGCRCSQLDHLYRDEVQDAQERGVFGRVLTAFSREPDSPKTYVQDILRTELAAEVHRVLCLERGHMFVCGDVTMATSVLQTVQRILATEGDMELDEAGDVIGVLRDQQRYHEDIFGLTLRTQEVTSRIRTQSFSLQERHLRGAVPWAFDPPGPDTPGP
B2: S1179D: bovine eNOS with serine 1179 mutated to aspartic acid (protein)
chain: B1 Nitric oxide synthase 3 with S1178D

Assays:
COS cells = assay: cGMP accumulation in transfected COS cells as bioassay for NO; format: cell-based; settings: eNOS alone or eNOS with Akt construct
Description: (§1) Cell Transfections: The bovine eNOS, human iNOS, rat nNOS cDNAs in pcDNA3 and HA-tagged wild-type Akt, Akt (K179M) or myr-Akt in pCMV6 were generated by standard cloning methods. The myr-nNOS in pcDNA3 was generated by PCR, incorporating a new amino terminus containing the eNOS N-myristoylation consensus site (MGNLKSVG, SEQ ID NO:1) fused in frame to the second amino acid of the nNOS coding sequence. […] Mutation of the putative Akt phosphorylation sites in eNOS were generated using the Quick Change site-directed mutagenesis kit (Stratagene) according to the manufacturers instructions. All mutants were verified by DNA sequencing. COS-7 cells were plated (100 mm dish) and transfected with the NOS (7.5-30 mg) and Akt (1 mg) plasmids using calcium phosphate. To balance all transfections, the expression vector for β-galactosidase cDNA was used. Twenty-four to forty-eight hours after transfection, the expression of appropriate proteins (40-80 mg) were confirmed by Western blot analysis using eNOS mAb (9D10, Zymed), HA mAb (12CA5, Boehringer Mannheim), iNOS pAb (Zymed Laboratories) or nNOS mAb (Zymed Laboratories).
NO release from transfected COS cells: 24-48 hrs after transfection, media was processed for the measurement of nitrite (NO2^−), the stable breakdown product of NO in aqueous solution, by NO specific chemiluminescence as described (Sessa et al., 1995). […]

COS-7 cells = assay: NO release (NO2−, chemiluminescence) from transfected COS cells; format: cell-based; settings: NOS construct co-transfected with Akt
Description: as §1
NO release from transfected COS cells: 24-48 hrs after transfection, media was processed for the measurement of nitrite (NO2^−), the stable breakdown product of NO in aqueous solution, by NO specific chemiluminescence as described (Sessa et al., 1995). Media was deproteinized and samples containing NO2^− were refluxed in glacial acetic acid containing sodium iodide. […] In all experiments, NO2^− release was inhibitable by a NOS inhibitor. In addition, NO2^−-release from cells transfected with the β-galactosidase cDNA was subtracted to control for background levels of NO2^− found in serum or media. In some experiments, cGMP accumulation in COS was used as a bioassay for the production of NO as described.

[1] = DCIP reduction by purified eNOS; format: biochemical; settings: FIG. 6B
Method: Assays for Reductase Activity—NADPH-cytochrome c reductase activity and 2,6-dichlorophenolindophenol (DCIP) reduction were measured as a change in absorbance at 550 nm as described previously by Martasek et al. (1999) and Masters et al. (1967) using an extinction coefficient of 0.021 μM^−1 cm^−1 for both cytochrome c and DCIP. Briefly, a reaction mixture (1 ml) contained either cytochrome c (90 μM); DCIP (36 μM), HEPES buffer (50 mM) at pH 7.6, NaCl (250 mM), NADPH (100 μM), calmodulin (120 nM), and CaCl2 (200 μM); or other substances as indicated. The reaction was monitored for 60 s (at 23° C.) after the addition of eNOS. When inactivation of reductase activity was determined by the addition of EGTA (200-800 μM), chelator was added 1 min after initiation of the reaction and monitored for an additional 1 min. The reaction contained HEPES buffer (50 mM) at pH 7.6, CaM (120 nM), and CaCl2 (200 μM) and was initiated with NADPH (100 μM). No NaCl was added in experiments that examined EGTA inactivation of eNOS to mimic the conditions used in the hemoglobin capture experiments. […] Determination of the calcium EC50 for eNOS was performed as described above for the hemoglobin capture assay.

| Molecule | cGMP accumulation (COS cells) | Akt dependent NO release / activation of NOS construct (COS-7 cells) | DCIP reduction activity compared with wild type eNOS [1] |
| --- | --- | --- | --- |
| B1 | 5.5±0.8 pmol cGMP/mg protein | – | – |
| B2 | – | partially mimics the activation state induced by Akt | significant increase in activity |
